Reference: patent US20080311122A1, “Antagonists of Hmgb1 and/or Rage and Methods of Use Thereof” (Medimmune, LLC, priority 2005, published 2008)
Entries after “also recorded” stand apart in the source; their conditions may differ.

How the values were obtained:
[1] = system: HMG1 enhancement of PAMP stimulation; experiment: Inhibition of the enhancement of PAMP stimulation by HMG1 (Table 1 summary); type: cell-based; conditions: PAMP used and cytokine assayed are indicated
Method: (§1) Inhibition of HMG1 Mediated Enhancement of TLR Signaling: Human PBMCs were treated with Tx-HMGB1+LPS (as described above) in combination with either the Anti-HMG1 antibody E11, S16 or G4, anti-TLR4 antibody, or isotype control antibodies (R3, IgG2a) and incubated overnight at 37° C., 5% CO2 in the presence of 8 U/mL Polymyxin B. The supernatants were assayed for cytokine levels (FIG. 22, right panel).
Inhibition of HMG1 Mediated Enhancement of TLR Signaling: Freshly isolated bone marrow cells were stimulated with TLR9 ligand CpG2216 (0.3 μM) and thymus HMGB1 (10 μg/mL) in the presence of different concentration of the anti-HMGB1 mAb E11 or control human IgG for 24 hr and IFN-a in the supernatant was measured by ELISA. CpG2216, HMGB1 and nonstimulatory DNA were used alone or in combination as controls for the assay.

[2] = system: Tx-HMGB1+LPS stimulated IL-6 release (TLR4 signaling); experiment: Inhibition of HMG1 mediated enhancement of TLR signaling, Tx-HMGB1+LPS in human PBMCs; type: cell-based
Method: Cytokine Release Assays: Human PBMCs were treated with rHMG1 in the presence or absence of Polymyxin B (FIG. 20). Human PBMCs were treated with rHMG1 and Tx-HMGB1 at concentrations up to 4 μg/ml (FIG. 21). ˜16 μg/mL (512 nM) Tx-HMGB1 was incubated with 61.5 EU/mL (6.15 ng/mL; approx. 0.615 nM) LPS overnight at 4° C. The sample was diluted as indicated and added to human PBMCs (FIG. 22). In all assays the cells were incubated overnight at 37° C., 5% CO2 and the supernatants were assayed for cytokine levels by Bioplex assay. When present Polymyxin B was used at 8 U/mL.
as §1

HMG1 peptides = experiment: HMG1 B Box and peptide mapping ELISA; type: binding; conditions: overlapping HMGB1 peptides
Method: HMG1 B Box and Peptide Mapping: Individual wells of a 96-well immunoplate (EIA/RIA plate, High binding, Costar) were coated with HMG1 B Box peptide amino acids 91-169 (FIG. 5A) or amino acids 150-183 (FIG. 5B) at 10 μg/ml in PBS at 4° C. overnight. The plate was then blocked with 4% milk powder dissolved in PBS at 37° C. for 1 hour. The blocking solution was removed and replaced with human anti-HMG1 antibodies at various concentrations (see FIGS. 5A-B). The plate was then washed (ELX-405 Plate washer, BIO-TEK) and secondary antibody (anti-human IgG-HRP, PIERCE) was added at a final concentration of 1:125,000 at 37° C. for 1 hour. HRP activity was detected with Sureblue HRP substrate (KPL). Plates were read at 450 nm using a Kinetic Microplate Reader (Molecular Devices). To obtain more detailed peptide mapping information, similar ELISA assays were performed using 16 biotinylated overlapping peptides spanning the HMGB1 protein from amino acid 1 to 215 as follows, maxisorp microtiter plate was coated with 2 μg/ml of NeutroAvidin (Pierce) overnight at 4° C. After washing and blocking with 1% BSA in PBS, the biotinylated peptides were individually added into the avidin coated wells and incubated for 30 min at room temperature. The serial diluted antibody G4, S16 and S6 at the initial concentration at 10 μg/ml were then transferred into the wells followed by adding mouse anti human IgG-HRP conjugate (Pierce). Detection was accomplished by adding 50 μl of tetramethylbenzidine (TMB) substrate (KPL) and the absorbance was read at […]. The peptides used were amino acids: 46-63; 61-78; 76-93; 91-108; 106-123; 136-153; 151-168; 166-183; 179-185; 181-198; and 196-215.

[3] = system: HMG1 stimulated cytokine gene expression in mouse macrophages; experiment: Taqman analysis of mouse macrophages (mMØ) stimulated with HMG1; type: cell-based; conditions: rHMG1
Method: Taqman Analysis of Mouse Macrophages (mMØ) Stimulated with HMG1: Mouse bone marrow was harvested by rinsing the femurs of normal C57BL/6 mice. The isolated bone marrow cells were then cultured in Dulbecco's modified Eagle's medium (DMEM) supplemented with 10% fetal bovine serum (FBS) and 50 ng/ml M-CSF for 24 h, nonadherent cells were collected and grown for 6 days in complete DMEM supplemented with 10% FBS and 50 ng/ml M-CSF in T-75 flasks (1×10^7 cells/15 ml/flask). On day 6, adherent cells were harvested and reseeded with 5 ng/ml MCSF in α-MEM containing 10% FBS in 96-well plates (1×10^5 cells/200 μl/well) overnight.
The culture medium was replaced with α-MEM and incubated for 2 hours before stimulation to starve cells. HMGB1 (recombinant CBP-HMGB1 fusion protein generated from E. coli at 10 μg/ml), mouse-RAGE-Fc or human-RAGE-Fc fusion protein were pre-mixed with various blocking reagents at 100 μg/ml in α-MEM for 20 min at RT, then 100 μl of the mixtures was added to the cells and incubated at 37° C. for 2 hours. The supernatant was then removed, and the RNA was extracted using Ambion's MagMAX™-96 Total RNA Isolation Kit. All of the recovered RNA were used in a reverse transcriptase (RT) reaction with SuperScript™ III and oligo(dT) primer (Invitrogen) for synthesis of cDNA. 1 μl or 2 μl of the resulting cDNA was used for real time quantitative PCR analysis (TaqMan) using ABI Prism 7700 or 7000.

[4] = system: HMG1 induced TLR4 activation; experiment: TLR4 activation assay (NF-κB luciferase reporter, 293 cells); type: cell-based, human
Method: TLR4 Activation Assay: HuTLR4 and CD14 stably expressed 293 cells (Invitrogen) were seeded in a 96 well plate at 2×10^4/well in 100 μl of DMEM with 10% FCS overnight. Cells were then transfected with NF-κB/Luc (Stratagene) luciferase reporter construct as indicated by the kit for 24 hr. A mixture of HMGB1 and anti-HMGB1 was added to cells at 100 μl/well overnight. The luciferase activity was then measured to reflect TLR4 activation (Promega).

Molecule	Inhibition of Synergy (PAMP/Cytokine) [1]	inhibition of Tx-HMGB1+LPS induced IL-6 release [2]	detailed peptide mapping / domain recognized (HMG1 peptides)	inhibition of HMG1-induced IL-1β gene expression [3]	block of HMG1 induced TLR4 activation [4]	inhibition of HMG1-induced TNF-a gene expression [3]
S16: human anti-HMG1 antibody, ATCC PTA-6259; VL/VH aa SEQ ID NO: 13/15 (antibody, listed as Homo sapiens, V domains shown) VH: EVQLLESGGGLVQPGGSLRLSCAASGFTFSWYSMLWVRQAPGKGLEWVSYISPSGGFTNYADSVKGRFTISRDNSKNTLYLQMNSLRAEDTAVYYCARWDYNSGWYYDHWGQGTLVTVSS VL: AQDIQMTQSPDTLSLSPGERATLSCRASQSVNSRNLAWYQQKPGQAPRLLIYGASTRATGIPDRFSGSVSGTEFTLTISSLQPDDFATYYCQQYNSYFTFGQGTKLEIK	LPS/IL-6	reduction in IL-6 release to near background levels; also recorded: block the Tx-HMG1 mediated enhancement of TLR4 signaling; also recorded: can be inhibited	strongest binding to the B-box peptide 91-108 with lesser binding to peptides 166-183 and 179-186; also recorded: binds the B-box peptide 91-108 and to a lesser extent peptides 166-183 and 179-186	–	–	–
E11: human anti-HMG1 antibody, recognizes HMG1 A-Box; VL/VH aa SEQ ID NO: 24/26 (antibody, listed as Homo sapiens, V domains shown) VH: EVQLLESGGGLVQPGGSLRLSCAASGFTFSRYQMNWVRQAPGKGLEWVSSISPSGGHTHYADSVKGRFTISRDNSKNTLYLQMNSLRAEDTAVYYCAKDGRQGKISTVDHWGQGTLVTVSS VL: AQDIQMTQSPGTLSLSPGERATLSCRASQSVRSNFLAWYQQKPGQAPRLLIYGASRRASGIPDRFSGSGFGADFTLSISRLEPEDFAVYYCQQYGSSPNTFGQGSRVEIK	CpG/IFN-a, LPS/IL-6	reduction in IL-6 release to near background levels; also recorded: block the Tx-HMG1 mediated enhancement of TLR4 signaling; also recorded: can be inhibited	recognizes the HMG1 A-Box	significantly reduce HMG1-induced IL-1b gene expression; also recorded: robustly inhibited	able to inhibit HMG1 activation of TLR4; also recorded: significant ability to block HMG1 induced TLR4 activation	–
G20: human anti-HMG1 antibody; VL/VH aa SEQ ID NO: 46/48 (antibody, listed as Homo sapiens, V domains shown) VH: EVQLLESGGGLVQPGGSLRLSCAASGFTFSWYDMFWVRQAPGKGLEWVSWISPSGGYTKYADSVKGRFTISRDNSKNTLYLQMNSLRAEDTAMYYCARSGLDYYDSSGYLDAFDIWGQGTMVTVSS VL: AQDIQMTQSPSSVSASVGDRVTITCRASQDVSIWLAWYQQKPGKAPKLLIFGASRLQSGVPSRFSGSRSGADFTLTIDSVQPEDFASYYCQQADSFPLTFGGGTKVEIK	–	–	–	–	able to inhibit HMG1 activation of TLR4	–
G2: human anti-HMG1 IgG1 from Fab phage display library; VL/VH aa SEQ ID NO: 30/32 (antibody, listed as Homo sapiens, V domains shown) VH: EVQLLESGGGLVQPGGSLRLSCAASGFTFSWYKMQWVRQAPGKGLEWVSGISPSGGSTAYADSVKGRFTISRDNSKNTLYLQMNSLRAEDTAVYYCAKMGLFNTGNSYVDYWGQGTLVTVSS VL: AQSELTQPPSVSEAPGQRVTISCSGSTSNIGNNAVIWYQQLPGKAPKLLIYYDDLLPSGVSDRFSGSKSGTSGSLAISGLQSEDEADYYCASWDDNLNGPLFGGGTKLTVL	–	–	–	significantly reduce HMG1-induced IL-1b gene expression; also recorded: robustly inhibited	–	significantly reduce HMG1-induced TNF-α gene expression; also recorded: robustly inhibited
